Data reported in paper PMC7170241.

What was measured:
[1] = target: MamB_(BW-1) cytosolic C-terminal domain (CTD), residues 190-270 (Desulfamplus magnetovallimortis strain BW-1) (UniProt G8IQT4); assay: SEC; preparative size-exclusion chromatography after Ni-NTA; HiLoad 26/60 Superdex 75; buffer E (20 mM Tris-HCl pH 8, 150 mM NaCl, 5 mM beta-mercaptoethanol)
[2] = target: MamM_(BW-1) cytosolic C-terminal domain (CTD), residues 213-293 (Desulfamplus magnetovallimortis strain BW-1); assay: as above

Substance: MamB_(BW-1) cytosolic C-terminal domain (CTD), residues 190-270 (from UniProt G8IQT4 190-270) (domain or fragment)
- stoichiometry N [1]: 2

Substance: MamM_(BW-1) cytosolic C-terminal domain (CTD), residues 213-293 (domain or fragment)
- stoichiometry N [2]: 2
